What was measured:
[1] = target: His-YY1 ZF1+ZF2+ZF3 del382-end (UniProt P25490); experiment: EMSA; conditions: EMSA: 10 mM HEPES-KOH, 12 mM Tris-HCl, 50 mM NaCl, 50 mM KCl, 5 mM MgCl2, 100 uM ZnCl2, 0.01% NP-40, 5% glycerol, 2.5 mM DTT, pH 7.4, 25 C, 2.5 nM probe; FP: …
[2] = target: His-YY1 ZF1+ZF2 del352-end (UniProt P25490); experiment: EMSA; conditions: EMSA: 10 mM HEPES-KOH, 12 mM Tris-HCl, 50 mM NaCl, 50 mM KCl, 5 mM MgCl2, 100 uM ZnCl2, 0.01% NP-40, 5% glycerol, 2.5 mM DTT, pH 7.4, 25 C, 2.5 nM probe; FP: …
His-YY1 ZF1+ZF2 del352-end, sequence (P25490 1-351): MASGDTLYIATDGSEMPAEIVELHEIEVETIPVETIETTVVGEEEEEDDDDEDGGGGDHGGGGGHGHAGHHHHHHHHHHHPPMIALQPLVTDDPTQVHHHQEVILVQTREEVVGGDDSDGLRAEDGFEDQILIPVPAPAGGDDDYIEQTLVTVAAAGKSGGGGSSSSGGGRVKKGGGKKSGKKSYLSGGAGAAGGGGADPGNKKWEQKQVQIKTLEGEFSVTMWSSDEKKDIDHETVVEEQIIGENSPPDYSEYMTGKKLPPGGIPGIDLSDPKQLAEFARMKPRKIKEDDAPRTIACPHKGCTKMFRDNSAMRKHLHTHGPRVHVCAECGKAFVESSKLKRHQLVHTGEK

His-YY1 full-length [3] = target: T1, His-YY1 full-length (UniProt P25490 1-414); experiment: EMSA; EMSA: 10 mM HEPES-KOH, 12 mM Tris-HCl, 50 mM NaCl, 50 mM KCl, 5 mM MgCl2, 100 uM ZnCl2, 0.01% NP-40, 5% glycerol, 2.5 mM DTT, pH 7.4, 25 C, 2.5 nM probe; FP: 50 mM Tris-HCl, 100 mM KCl, 2.5 mM MgCl2, 100 uM ZnCl2, pH 7.4, 25 C; conditions: protein: recombinant, tags: His, label: Cy5
T1 sequence (P25490 whole entry): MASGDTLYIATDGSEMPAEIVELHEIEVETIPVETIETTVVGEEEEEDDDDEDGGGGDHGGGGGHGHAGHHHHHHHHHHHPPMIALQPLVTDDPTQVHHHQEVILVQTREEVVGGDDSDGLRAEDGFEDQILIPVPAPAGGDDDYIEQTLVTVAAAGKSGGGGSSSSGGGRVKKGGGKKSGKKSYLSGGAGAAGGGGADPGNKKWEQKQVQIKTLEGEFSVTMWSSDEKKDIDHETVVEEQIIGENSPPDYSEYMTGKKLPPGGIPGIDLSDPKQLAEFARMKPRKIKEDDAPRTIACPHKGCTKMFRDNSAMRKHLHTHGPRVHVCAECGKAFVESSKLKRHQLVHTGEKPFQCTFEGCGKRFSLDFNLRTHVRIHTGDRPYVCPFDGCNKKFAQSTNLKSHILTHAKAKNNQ

His-YY1 full-length [4] = target: T1, His-YY1 full-length; experiment: fluorescence polarisation; EMSA: 10 mM HEPES-KOH, 12 mM Tris-HCl, 50 mM NaCl, 50 mM KCl, 5 mM MgCl2, 100 uM ZnCl2, 0.01% NP-40, 5% glycerol, 2.5 mM DTT, pH 7.4, 25 C, 2.5 nM probe; FP: 50 mM Tris-HCl, 100 mM KCl, 2.5 mM MgCl2, 100 uM ZnCl2, pH 7.4, 25 C; conditions: protein: recombinant; tags: His; label: FAM

His-YY1 ZF1+ZF2+ZF3 del382-end, sequence (P25490 1-381): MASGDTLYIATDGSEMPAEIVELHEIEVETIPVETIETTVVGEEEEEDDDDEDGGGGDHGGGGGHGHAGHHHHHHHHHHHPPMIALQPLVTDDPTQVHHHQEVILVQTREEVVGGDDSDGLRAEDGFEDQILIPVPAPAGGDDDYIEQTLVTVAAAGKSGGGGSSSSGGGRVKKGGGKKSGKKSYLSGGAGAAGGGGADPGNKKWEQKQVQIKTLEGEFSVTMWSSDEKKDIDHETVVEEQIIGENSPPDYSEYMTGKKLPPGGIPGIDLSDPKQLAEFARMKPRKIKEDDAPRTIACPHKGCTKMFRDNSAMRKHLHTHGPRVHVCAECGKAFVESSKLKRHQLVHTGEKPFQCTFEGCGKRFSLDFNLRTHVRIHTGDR

GGGGCCGGGGCCGGGGCCGGGGCCGGGGCCGGGGCCGGGGCCGGGGCC [(GGGGCC)8 RNA]
Kd [1]: 59 nM
Kd [2]: 129 nM

B1: FuzzyYY1-a DNA (dsDNA)
DNA 1: TGGGCAACATGGCGACACCC
DNA 2: GGGTGTCGCCATGTTGCCCA
Kd (His-YY1 full-length [3]; blunt): 242 ± 21.7 nM

B2: FuzzyYY1-b DNA (dsDNA)
DNA 1: AGTCCTAAATGGGGGAGGAG
DNA 2: CTCCTCCCCCATTTAGGACT
Kd (His-YY1 full-length [3]; blunt): 405 ± 45.9 nM

GGGGCCGGGGCCGGGGCCGGGGCCGGGGCCGGGGCCGGGGCCGGGGCC (ssRNA) [(GGGGCC)8 RNA]
Kd (His-YY1 full-length [3]): 46.8 ± 3.42 nM

GGGCGCGGCGCGCGGGCCGGGGCGGGCGCGCGGGCGGGGCGCGGCGCG (ssRNA) [randomised GC-rich RNA]
Kd (His-YY1 full-length [3]): 201 ± 17.9 nM

CGGGGCCGGGGCCGGGGCCGGGGCCGGGGCCGGGGCCGGGGCCGGGGCCG (ssRNA) [FAM-(GGGGCC)8 RNA]
Kd (His-YY1 full-length [4]): 45.3 ± 3.67 nM

B3: AAV P5 DNA (dsDNA)
DNA 1: AGGGTCTCCATTTTGAAGCG
DNA 2: CGCTTCAAAATGGAGACCCT
binding result (His-YY1 full-length [3]; blunt): binds

B4: PP7 RNA (ssRNA)
RNA: UAAAGUAAGAUAAGGCAAGACAAGGUAAAACGGAACAGAACCGAAGGGAAGAGAAGCAAAGCGAAAGGAAAUAAACAAAAGAAAAAUUCGUAGAAUUCCG
binding result (His-YY1 full-length [3]): binds
